PMC7804152, “Structural basis for the multi-activity factor Rad5 in replication stress tolerance”

Key:
[1] = biological target: T1, KlRad5 (Kluyveromyces lactis, UniProt Q6CJM4 163-1114); test: fluorescence polarization; 70 mM NaCl; similar to 5'-FAM; FP: 20 mM Tris pH 7.5, 50 mM (dsDNA, KlHIRAN) or 70 mM (ssDNA) NaCl, 2 mM MgCl2, 1 nM DNA, room temp; EMSA: 20 mM Tris pH 7.5, 100 mM KCl, 0.5 mM DTT, 3% glycerol, 2 mM MgCl2, 250 ug/mL BSA, 4 C; pull-down: 20 mM Tris pH 7.5, 50 mM NaCl, 4 C; conditions: protein: recombinant; tags: none; label: 3'-FAM
T1 sequence: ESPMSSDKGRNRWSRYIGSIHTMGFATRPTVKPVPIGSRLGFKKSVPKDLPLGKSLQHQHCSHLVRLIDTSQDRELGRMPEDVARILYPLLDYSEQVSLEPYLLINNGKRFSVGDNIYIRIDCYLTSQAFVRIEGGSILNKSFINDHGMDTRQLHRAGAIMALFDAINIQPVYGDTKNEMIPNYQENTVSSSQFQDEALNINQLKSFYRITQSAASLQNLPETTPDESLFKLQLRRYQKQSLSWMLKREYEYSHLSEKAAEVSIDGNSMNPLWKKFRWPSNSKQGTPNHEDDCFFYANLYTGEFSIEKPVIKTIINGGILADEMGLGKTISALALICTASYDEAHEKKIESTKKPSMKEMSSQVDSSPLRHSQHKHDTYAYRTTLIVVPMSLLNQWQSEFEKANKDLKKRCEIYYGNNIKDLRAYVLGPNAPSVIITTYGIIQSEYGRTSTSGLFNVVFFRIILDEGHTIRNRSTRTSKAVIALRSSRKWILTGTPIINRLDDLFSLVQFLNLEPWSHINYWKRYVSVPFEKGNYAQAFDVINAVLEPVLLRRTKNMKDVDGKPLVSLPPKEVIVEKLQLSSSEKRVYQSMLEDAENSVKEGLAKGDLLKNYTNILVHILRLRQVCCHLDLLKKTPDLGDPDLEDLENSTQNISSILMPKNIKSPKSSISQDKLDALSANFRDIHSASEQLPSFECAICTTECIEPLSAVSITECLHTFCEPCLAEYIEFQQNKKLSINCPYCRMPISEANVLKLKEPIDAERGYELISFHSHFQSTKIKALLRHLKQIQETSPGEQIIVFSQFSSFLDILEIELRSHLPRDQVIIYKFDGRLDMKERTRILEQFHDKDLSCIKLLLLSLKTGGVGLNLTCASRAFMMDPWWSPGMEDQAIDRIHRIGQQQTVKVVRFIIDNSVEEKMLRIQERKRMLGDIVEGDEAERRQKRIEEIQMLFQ

[2] = biological target: T2, His-KlRad5 (Kluyveromyces lactis, UniProt Q6CJM4 163-1114); test: fluorescence polarization; FP: 20 mM Tris pH 7.5, 50 mM (dsDNA, KlHIRAN) or 70 mM (ssDNA) NaCl, 2 mM MgCl2, 1 nM DNA, room temp; EMSA: 20 mM Tris pH 7.5, 100 mM KCl, 0.5 mM DTT, 3% glycerol, 2 mM MgCl2, 250 ug/mL BSA, 4 C; pull-down: 20 mM Tris pH 7.5, 50 mM NaCl, 4 C; conditions: protein: recombinant; tags: N-terminal His6; label: 5'-FAM
T2 sequence: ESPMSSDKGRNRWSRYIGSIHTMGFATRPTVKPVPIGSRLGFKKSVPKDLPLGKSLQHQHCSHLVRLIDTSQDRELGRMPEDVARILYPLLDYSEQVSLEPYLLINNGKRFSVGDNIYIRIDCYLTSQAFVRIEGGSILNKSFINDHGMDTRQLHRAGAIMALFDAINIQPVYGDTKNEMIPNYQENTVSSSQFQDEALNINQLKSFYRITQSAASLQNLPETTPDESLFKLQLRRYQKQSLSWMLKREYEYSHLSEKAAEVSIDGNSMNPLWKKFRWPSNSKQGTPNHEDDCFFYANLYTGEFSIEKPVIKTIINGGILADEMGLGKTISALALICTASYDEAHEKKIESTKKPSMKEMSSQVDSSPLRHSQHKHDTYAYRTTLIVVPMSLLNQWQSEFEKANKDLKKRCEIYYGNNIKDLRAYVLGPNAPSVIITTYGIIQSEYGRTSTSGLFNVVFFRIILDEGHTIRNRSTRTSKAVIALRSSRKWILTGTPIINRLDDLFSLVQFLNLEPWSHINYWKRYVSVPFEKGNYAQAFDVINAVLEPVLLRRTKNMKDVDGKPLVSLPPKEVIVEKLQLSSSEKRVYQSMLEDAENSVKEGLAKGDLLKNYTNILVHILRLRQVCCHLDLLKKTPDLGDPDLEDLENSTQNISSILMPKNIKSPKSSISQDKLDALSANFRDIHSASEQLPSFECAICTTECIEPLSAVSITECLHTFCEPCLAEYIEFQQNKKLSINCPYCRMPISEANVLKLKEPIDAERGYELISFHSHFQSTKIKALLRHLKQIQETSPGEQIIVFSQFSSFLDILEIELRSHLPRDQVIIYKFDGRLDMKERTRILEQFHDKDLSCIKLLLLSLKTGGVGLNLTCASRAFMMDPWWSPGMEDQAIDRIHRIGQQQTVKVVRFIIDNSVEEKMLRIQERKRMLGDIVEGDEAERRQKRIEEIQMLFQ

[3] = biological target: T1, KlRad5; test: fluorescence polarization; 70 mM NaCl; FP: 20 mM Tris pH 7.5, 50 mM (dsDNA, KlHIRAN) or 70 mM (ssDNA) NaCl, 2 mM MgCl2, 1 nM DNA, room temp; EMSA: 20 mM Tris pH 7.5, 100 mM KCl, 0.5 mM DTT, 3% glycerol, 2 mM MgCl2, 250 ug/mL BSA, 4 C; pull-down: 20 mM Tris pH 7.5, 50 mM NaCl, 4 C; conditions: protein: recombinant; tags: none; label: 5'-FAM
[4] = biological target: T3, ScHIRAN (Saccharomyces cerevisiae, UniProt P32849 171-375); test: EMSA; FP: 20 mM Tris pH 7.5, 50 mM (dsDNA, KlHIRAN) or 70 mM (ssDNA) NaCl, 2 mM MgCl2, 1 nM DNA, room temp; EMSA: 20 mM Tris pH 7.5, 100 mM KCl, 0.5 mM DTT, 3% glycerol, 2 mM MgCl2, 250 ug/mL BSA, 4 C; pull-down: 20 mM Tris pH 7.5, 50 mM NaCl, 4 C; conditions: protein: recombinant; tags: intein-CBD cleaved off; label: 5'-FAM
T3 sequence: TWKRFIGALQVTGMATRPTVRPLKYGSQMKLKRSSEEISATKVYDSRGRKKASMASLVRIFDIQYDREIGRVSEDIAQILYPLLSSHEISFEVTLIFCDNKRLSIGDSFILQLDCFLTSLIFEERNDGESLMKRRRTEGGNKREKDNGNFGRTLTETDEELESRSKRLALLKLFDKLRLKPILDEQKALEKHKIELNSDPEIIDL

[5] = biological target: T4, KlHIRAN (Kluyveromyces lactis, UniProt Q6CJM4 174-341); test: as above; conditions: protein: recombinant; tags: intein-CBD cleaved off; label: 5'-FAM
T4 sequence: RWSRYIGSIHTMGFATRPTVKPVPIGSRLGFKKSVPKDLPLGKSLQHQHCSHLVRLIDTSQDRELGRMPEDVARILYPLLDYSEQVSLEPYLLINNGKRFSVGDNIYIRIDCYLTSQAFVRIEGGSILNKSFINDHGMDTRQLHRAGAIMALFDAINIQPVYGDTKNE

[6] = biological target: T5, HsHIRAN (Homo sapiens, UniProt Q14527 55-180); test: EMSA; strong preference for free 3'-OH; FP: 20 mM Tris pH 7.5, 50 mM (dsDNA, KlHIRAN) or 70 mM (ssDNA) NaCl, 2 mM MgCl2, 1 nM DNA, room temp; EMSA: 20 mM Tris pH 7.5, 100 mM KCl, 0.5 mM DTT, 3% glycerol, 2 mM MgCl2, 250 ug/mL BSA, 4 C; pull-down: 20 mM Tris pH 7.5, 50 mM NaCl, 4 C; conditions: protein: recombinant; tags: His (pET28a), HA; label: 5'-FAM
T5 sequence: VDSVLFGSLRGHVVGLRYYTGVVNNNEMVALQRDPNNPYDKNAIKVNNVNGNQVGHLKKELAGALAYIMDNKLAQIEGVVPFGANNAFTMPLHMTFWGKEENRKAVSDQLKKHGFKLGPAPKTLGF

TTTTTTTCGTCTTCGGCAATTTTTT (ssDNA) [S1 ssDNA, 3'-FAM]: binds [1].

TTTTTTTCGTCTTCGGCAATTTTTT (ssDNA) [S1 ssDNA, 5'-FAM]: binds [2]; binds [3].

TTTTTTTTTT (ssDNA) [dT10, 5'-FAM]: binds [4]; binds [5]; binds [6].
